Measured values as given in patent publication US20260098092A1 (CHULALONGKORN UNIVERSITY, published 2026).

Each binder was assayed against T1, recombinant human PD-1 His-tag protein (R&D Systems) (human, UniProt Q15116 25-167) (assay: binding kinetics (method not described at the table; presumably SPR as in Example 8)).
T1 construct: Bought reagent; Used for the ELISA (coated) and for SPR (analyte); also called PD-1 protein; human PD-1 protein; not shown: His-tag
T1 sequence (Q15116 25-167 limits assumed): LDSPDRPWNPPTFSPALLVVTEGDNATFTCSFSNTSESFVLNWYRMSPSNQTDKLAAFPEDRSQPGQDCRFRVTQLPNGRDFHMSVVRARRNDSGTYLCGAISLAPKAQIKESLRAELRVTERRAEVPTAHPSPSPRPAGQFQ

Kd [pM] | koff [s⁻¹] | kon [M⁻¹ s⁻¹] | Binder
20.6 | 7.57e-05 | 3.67e+06 | Modified Seq11 (modified zCUSB0136.8 antibody) (antibody, V domains shown) VH: QVQLQESGPGLVKPSETLSLTCTVSGFSLTTYDIIWIRQSPGKGLEWLGVIWTGGDTTYNSAFMSRLTISKDTSKNQISLKMSSLTAADTAVYYCARDWAYWGQGTLVTVSS VL: DIVLTQSPDSLAVSLGERATISCRASESVDNYGNSFIQWYQQKPGQPPKLLIYFASYLQSGVPDRFSGSGSGTDFTLTISSVQAEDVATYYCHQNNEDPFTFGGGTKLEIK
5.39 | 2.81e-05 | 5.21e+06 | Modified Seq1 (modified zCUSB0136.8 antibody) (antibody, V domains shown) VH: QVQLQESGPGLVKPSETLSLTCTVSGFSLTTYDIIWIRQSPGKGLEWLGVIWTGGDTWYNSAFMSRLTISKDTSKNQISLKMSSLTAADTAVYYCARDWAYWGQGTLVTVSS VL: DIVLTQSPDSLAVSLGERATISCRASESVDNWGNSFIQWYQQKPGQPPKLLIYFASYLQSGVPDRFSGSGSGTDFTLTISSVQAEDVATYYCHQNNEDPFTFGGGTKLEIK
10.8 | 4.36e-05 | 4.06e+06 | Modified Seq5 (modified zCUSB0136.8 antibody) (antibody, V domains shown) VH: QVQLQESGPGLVKPSETLSLTCTVSGFSLTVYDIIWIRQSPGKGLEWLGVIWTGGDTTYNSAFMSRLTISKDTSKNQISLKMSSLTAADTAVYYCARDWMYWGQGTLVTVSS VL: DIVLTQSPDSLAVSLGERATISCRASESVDNYGNSFIQWYQQKPGQPPKLLIYFASYLQSGVPDRFSGSGSGTDFTLTISSVQAEDVATYYCHQNNEDPFTFGGGTKLEIK
24.4 | 6.5e-05 | 2.67e+06 | Modified Seq14 (modified zCUSB0136.8 antibody) (antibody, V domains shown) VH: QVQLQESGPGLVKPSETLSLTCTVSGFSLTTYDIIWIRQSPGKGLEWLGVIWTGGDTTYNSAFMSRLTISKDTSKNQISLKMSSLTAADTAVYYCARDWIYWGQGTLVTVSS VL: DIVLTQSPDSLAVSLGERATISCRASESVDNWGNSFIQWYQQKPGQPPKLLIYFASNLQSGVPDRFSGSGSGTDFTLTISSVQAEDVATYYCHQNNEDPFTFGGGTKLEIK
9.31 | 5.28e-05 | 5.67e+06 | Modified Seq3 (modified zCUSB0136.8 antibody) (antibody, V domains shown) VH: QVQLQESGPGLVKPSETLSLTCTVSGFSLTTYDIIWIRQSPGKGLEWLGVIWTGGDTTYNSAFMSRLTISKDTSKNQISLKMSSLTAADTAVYYCARDWIYWGQGTLVTVSS VL: DIVLTQSPDSLAVSLGERATISCRASESVDNWGNSFIQWYQQKPGQPPKLLIYFASYLQSGVPDRFSGSGSGTDFTLTISSVQAEDVATYYCHQNNEDPFTFGGGTKLEIK
24.6 | 6.3e-05 | 2.56e+06 | Modified Seq15 (modified zCUSB0136.8 antibody) (antibody, V domains shown) VH: QVQLQESGPGLVKPSETLSLTCTVSGFSLTVYDIIWIRQSPGKGLEWLGVIWTGGDTTYNSAFMSRLTISKDTSKNQISLKMSSLTAADTAVYYCARDWAYWGQGTLVTVSS VL: DIVLTQSPDSLAVSLGERATISCRASESVDNWGNSFIQWYQQKPGQPPKLLIYFASNLQSGVPDRFSGSGSGTDFTLTISSVQAEDVATYYCHQNNEDPFTFGGGTKLEIK
9.44 | 3.92e-05 | 4.15e+06 | Modified Seq4 (modified zCUSB0136.8 antibody) (antibody, V domains shown) VH: QVQLQESGPGLVKPSETLSLTCTVSGFSLTVYDIIWIRQSPGKGLEWLGVIWTGGDTTYNSAFMSRLTISKDTSKNQISLKMSSLTAADTAVYYCARDWAYWGQGTLVTVSS VL: DIVLTQSPDSLAVSLGERATISCRASESVDNYGNSFIQWYQQKPGQPPKLLIYFASYLQSGVPDRFSGSGSGTDFTLTISSVQAEDVATYYCHQNNEDPFTFGGGTKLEIK
5.71 | 2.53e-05 | 4.44e+06 | Modified Seq2 (modified zCUSB0136.8 antibody) (antibody, V domains shown) VH: QVQLQESGPGLVKPSETLSLTCTVSGFSLTVYDIIWIRQSPGKGLEWLGVIWTGGDTTYNSAFMSRLTISKDTSKNQISLKMSSLTAADTAVYYCARDWIYWGQGTLVTVSS VL: DIVLTQSPDSLAVSLGERATISCRASESVDNYGNSFIQWYQQKPGQPPKLLIYFASYLQSGVPDRFSGSGSGTDFTLTISSVQAEDVATYYCHQNNEDPFTFGGGTKLEIK
13.6 | 5.45e-05 | 4e+06 | Modified Seq6 (modified zCUSB0136.8 antibody) (antibody, V domains shown) VH: QVQLQESGPGLVKPSETLSLTCTVSGFSLTTYDIIWIRQSPGKGLEWLGVIWTGGDTTYNSAFMSRLTISKDTSKNQISLKMSSLTAADTAVYYCARDWIYWGQGTLVTVSS VL: DIVLTQSPDSLAVSLGERATISCRASESVDNYGNSFIQWYQQKPGQPPKLLIYFASYLQSGVPDRFSGSGSGTDFTLTISSVQAEDVATYYCHQNNEDPFTFGGGTKLEIK
15.8 | 5.98e-05 | 3.78e+06 | Modified Seq9 (modified zCUSB0136.8 antibody) (antibody, V domains shown) VH: QVQLQESGPGLVKPSETLSLTCTVSGFSLTTYDIIWIRQSPGKGLEWLGVIWTGGDTNYNSAFMSRLTISKDTSKNQISLKMSSLTAADTAVYYCARDWAYWGQGTLVTVSS VL: DIVLTQSPDSLAVSLGERATISCRASESVDNYGNSFIQWYQQKPGQPPKLLIYFASYLQSGVPDRFSGSGSGTDFTLTISSVQAEDVATYYCHQNNEDPFTFGGGTKLEIK
14.7 | 6.09e-05 | 4.13e+06 | Modified Seq8 (modified zCUSB0136.8 antibody) (antibody, V domains shown) VH: QVQLQESGPGLVKPSETLSLTCTVSGFSLTTYDIIWIRQSPGKGLEWLGVIWTGGDTWYNSAFMSRLTISKDTSKNQISLKMSSLTAADTAVYYCARDWIYWGQGTLVTVSS VL: DIVLTQSPDSLAVSLGERATISCRASESVDNYGNSFIQWYQQKPGQPPKLLIYFASYLQSGVPDRFSGSGSGTDFTLTISSVQAEDVATYYCHQNNEDPFTFGGGTKLEIK
17.4 | 6.74e-05 | 3.87e+06 | Modified Seq10 (modified zCUSB0136.8 antibody) (antibody, V domains shown) VH: QVQLQESGPGLVKPSETLSLTCTVSGFSLTTYDIIWIRQSPGKGLEWLGVIWTGGDTWYNSAFMSRLTISKDTSKNQISLKMSSLTAADTAVYYCARDWMYWGQGTLVTVSS VL: DIVLTQSPDSLAVSLGERATISCRASESVDNWGNSFIQWYQQKPGQPPKLLIYFASHLQSGVPDRFSGSGSGTDFTLTISSVQAEDVATYYCHQNNEDPFTFGGGTKLEIK
22.5 | 6.81e-05 | 3.03e+06 | Modified Seq12 (modified zCUSB0136.8 antibody) (antibody, V domains shown) VH: QVQLQESGPGLVKPSETLSLTCTVSGFSLTVYDIIWIRQSPGKGLEWLGVIWTGGDTTYNSAFMSRLTISKDTSKNQISLKMSSLTAADTAVYYCARDWIYWGQGTLVTVSS VL: DIVLTQSPDSLAVSLGERATISCRASESVDNWGNSFIQWYQQKPGQPPKLLIYFASHLQSGVPDRFSGSGSGTDFTLTISSVQAEDVATYYCHQNNEDPFTFGGGTKLEIK
14.2 | 5.48e-05 | 3.84e+06 | Modified Seq7 (modified zCUSB0136.8 antibody) (antibody, V domains shown) VH: QVQLQESGPGLVKPSETLSLTCTVSGFSLTTYDIIWIRQSPGKGLEWLGVIWTGGDTTYNSAFMSRLTISKDTSKNQISLKMSSLTAADTAVYYCARDWMYWGQGTLVTVSS VL: DIVLTQSPDSLAVSLGERATISCRASESVDNYGNSFIQWYQQKPGQPPKLLIYFASYLQSGVPDRFSGSGSGTDFTLTISSVQAEDVATYYCHQNNEDPFTFGGGTKLEIK
